Experimental data published in patent US8932558B2, “Multi-subunit biological complexes for treatment of plaque-associated diseases” (Plaxgen Inc, priority 2007, dated 2015).

B1: STI: soybean trypsin inhibitor (protein, UniProt P01070 25-205, looked up)
Trypsin inhibitor A: DFVLDNEGNPLENGGTYYILSDITAFGGIRAAPTGNERCPLTVVQSRNELDKGIGTIISSPYRIRFIAEGHPLSLKFDSFAVIMLCVGIPTEWSVVEDLPEGPAVKIGENKDAMDGWFRLERVSDDEFNNYKLVFCPQQAEDDKCGDIGISIDHDDGTRRLVVSKNKPLVVQFQKLDKESL
B2: chicken ovalbumin: chicken ovalbumin (protein, UniProt P01012 2-386, looked up)
Ovalbumin: GSIGAASMEFCFDVFKELKVHHANENIFYCPIAIMSALAMVYLGAKDSTRTQINKVVRFDKLPGFGDSIEAQCGTSVNVHSSLRDILNQITKPNDVYSFSLASRLYAEERYPILPEYLQCVKELYRGGLEPINFQTAADQARELINSWVESQTNGIIRNVLQPSSVDSQTAMVLVNAIVFKGLWEKAFKDEDTQAMPFRVTEQESKPVQMMYQIGLFRVASMASEKMKILELPFASGTMSMLVLLPDEVSGLEQLESIINFEKLTEWTSSNVMEERKIKVYLPRMKMEEKYNLTSVLMAMGITDVFSSSANLSGISSAESLKISQAVHAAHAEINEAGREVVGSAEAGVDAASVSEEFRADHPFLFCIKHIATNAVLFFGRCVSP
B3: plasmin: serine protease (protein, UniProt P00747 20-580; P00747 581-810, looked up)
Plasmin heavy chain A: EPLDDYVNTQGASLFSVTKKQLGAGSIEECAAKCEEDEEFTCRAFQYHSKEQQCVIMAENRKSSIIIRMRDVVLFEKKVYLSECKTGNGKNYRGTMSKTKNGITCQKWSSTSPHRPRFSPATHPSEGLEENYCRNPDNDPQGPWCYTTDPEKRYDYCDILECEEECMHCSGENYDGKISKTMSGLECQAWDSQSPHAHGYIPSKFPNKNLKKNYCRNPDRELRPWCFTTDPNKRWELCDIPRCTTPPPSSGPTYQCLKGTGENYRGNVAVTVSGHTCQHWSAQTPHTHNRTPENFPCKNLDENYCRNPDGKRAPWCHTTNSQVRWEYCKIPSCDSSPVSTEQLAPTAPPELTPVVQDCYHGDGQSYRGTSSTTTTGKKCQSWSSMTPHRHQKTPENYPNAGLTMNYCRNPDADKGPWCFTTDPSVRWEYCNLKKCSGTEASVVAPPPVVLLPDVETPSEEDCMFGNGKGYRGKRATTVTGTPCQDWAAQEPHRHSIFTPETNPRAGLEKNYCRNPDGDVGGPWCYTTNPRKLYDYCDVPQCAAPSFDCGKPQVEPKKCPGR
Plasmin light chain B: VVGGCVAHPHSWPWQVSLRTRFGMHFCGGTLISPEWVLTAAHCLEKSPRPSSYKVILGAHQEVNLEPHVQEIEVSRLFLEPTRKDIALLKLSSPAVITDKVIPACLPSPNYVVADRTECFITGWGETQGTFGAGLLKEAQLPVIENKVCNRYEFLNGRVQSTELCAGHLAGGTDSCQGDSGGPLVCFEKDKYILQGVTSWGLGCARPNKPGVYVRVSRFVTWIEGVMRNN
modifications: Plasmin
notes: serine protease
B4: proteinase K: serine protease (protein, UniProt P06873 106-384, looked up)
Proteinase K: AAQTNAPWGLARISSTSPGTSTYYYDESAGQGSCVYVIDTGIEASHPEFEGRAQMVKTYYYSSRDGNGHGTHCAGTVGSRTYGVAKKTQLFGVKVLDDNGSGQYSTIIAGMDFVASDKNNRNCPKGVVASLSLGGGYSSSVNSAAARLQSSGVMVAVAAGNNNADARNYSPASEPSVCTVGASDRYDRRSSFSNYGSVLDIFGPGTSILSTWIGGSTRSISGTSMATPHVAGLAAYLMTLGKTTAASACRYIADTANKGDLSNIPFGTVNLLAYNNYQA

Columns and labels:
[1] = tested on: iron loaded prion or abeta40 templates; format: binding
[2] = target: iron-loaded abeta42 templates (Homo sapiens, UniProt P05067); test: Binding of proteins to iron-loaded abeta42 templates; settings: SDS-PAGE
Sequence of iron-loaded abeta42 templates (P05067 672-713 limits assumed): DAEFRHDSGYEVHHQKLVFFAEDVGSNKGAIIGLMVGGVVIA
Text: FIG. 46 illustrates an example involving the identification of proteins that bind to iron-loaded abeta42 templates. The iron-loaded abeta42 templates are combined with known and unknown cell extracts (CE) and subjected to CPA, as described herein. To determine which proteins successfully bind the templates, the final template complexes are suspended in denaturing sample buffer, boiled, and loaded into SDS-PAGE gel. The gels are then stained with coomassie blue or silver stain in order to visualize the binding proteins. […] In the negative control, no significant binding is observed when the proteins are incubated in the absence of the templates.
In experiments such as these, known and unknown cell extract proteins that are used for the complex formation with the aggregates are diluted in PBS to a 1 mg/ml concentration and stored at −70° C. as 50 μl aliquots. These samples are thawed on ice and centrifuged (13000 rpm, 15 min, 4° C.) to remove any precipitation. The supernatant containing soluble proteins is used to form complexes with the aggregates. Various proteins are screened against the iron loaded abeta42 aggregates for examining their binding. […] The proteins in the gels are detected using coomassie blue or silver stain (Owl silver stain, Pierce, Ill., USA). […]

[3] = tested on: iron loaded abeta42 aggregates mixed with CE proteins; test: Proteolysis of amyloid plaque complexes assembled on iron loaded abeta42 aggregates; format: biochemical; settings: 20 ng protease, 37° C., 1 hr
Procedure: This example illustrates the use of the invention to evaluate the proteolytic degradation of the amyloid complexes. For example, iron loaded abeta42 aggregates are mixed with CE proteins, and the resulting template complexes are treated with five different serine proteases. More specifically, nine independent reactions are carried out with each containing 5.0 μg of the iron-loaded aggregates of abeta42 and 6.0 μg of the CE proteins. After incubation and washing, the complexes are suspended in 50 μl of PBS. The nine complexes are sub-divided into two groups, with six individual complexes comprising Group I and three complexes comprising Group II. In order to interrogate the role of the plasminogen (PLG) activation system, which is implicated in the catabolism of amyloid peptides as well as the pathobiology of amyloid diseases (Melchor J P et al, 2003; Van Nostrand W E et al, 1999; Kranenburg O, 2005), the Group II complexes are subjected to another cycle of binding with both PLG (0.5 μg) and BSA (0.5 μg) proteins. After binding and washing, the PLG and BSA bound plaques complexes are suspended in 50 μl of PBS.
For proteolysis analysis, five of the six Group I template complexes are incubated with 20 ng of each protease (plasnin, chymotrypsin, trypsin, proteinase K and urokinase). The remaining complex is used as a control without protease treatment. […]

Molecule | Degradation of proteins bound to the aggregates [3] | other results
B1 | – | Binding with iron loaded prion or abeta40 templates [1]: no detectable binding
B2 | – | Binding with iron-loaded abeta42 templates [2]: no detectable binding
B3 | degraded | –
B4 | degraded | –
